Reference: paper PMC7823558 (Viruses, 2020)
Where two headings read alike, the source gives them in different places.

Legend:
gp11 = test system: T1, gp11; test: coupled pyruvate kinase / lactate dehydrogenase assay, NADH absorbance at […] nm; type: biochemical, Lactococcus phage asccphi28; details: 0.1 µM gp11, 50 mM Tris pH 7.5, 72 mM KCl, 7.2 mM MgSO4, 2 mM PEP, 0.3 mM NADH
T1 construct: E. coli BL21(DE3)

[1] = molecular target: gene product 11 (gp11), DNA packaging ATPase from Lactococcus lactis phage asccφ28 (Lactococcus lactis phage asccφ28); test: AUC; sedimentation velocity, data not shown
[2] = molecular target: gene product 11 (gp11), DNA packaging ATPase from Lactococcus lactis phage asccφ28 (Lactococcus lactis phage asccφ28); test: SEC
[3] = molecular target: gene product 11 (gp11), DNA packaging ATPase from Lactococcus lactis phage asccφ28 (Lactococcus lactis phage asccφ28); test: AUC

Nc1ncnc2c1ncn2[C@@H]1O[C@H](COP(=O)(O)OP(=O)(O)OP(=O)(O)O)[C@@H](O)[C@H]1O [ATP]
Km (gp11; read-out: ATP): 28 µM

Nc1nc2c(ncn2[C@@H]2O[C@H](COP(=O)(O)OP(=O)(O)OP(=O)(O)O)[C@@H](O)[C@H]2O)c(=O)[nH]1 [GTP]
Km (gp11; read-out: GTP): 344 µM

gene product 11 (gp11), DNA packaging ATPase from Lactococcus lactis phage asccφ28 (enzyme)
stoichiometry N [1]: 10 monomers | stoichiometry N [2]: 4 to 15 copies | stoichiometry N [3]: 10 monomers
